How the values were obtained:
[1] = molecular target: hybrid F(ab)₂-PhoA (complex hybrid protein alkaline phosphatase/F(ab)₂ of antibody Mα2-3) (E. coli) [phosphatase: P00634]
[2] = molecular target: reagent Mα2-3/peroxidase, obtained by classical chemical coupling

toxin alpha (from UniProt P01426)
IC50 [1]: 20 nM
IC50 [2]: 9 nM
